# From patent US20060281899A1, “Mutants of biotin binding protein” (priority 2002, published 2006)
# Values joined by “and” are separate entries in the source; they are usually repeats but may differ in a detail not shown here. Equal values may be shown once. Read-outs that look alike come from different tables or passages of the source.
# Legend:
# [1] = 2-iminobiotin surface; from Nordlund 2003; read-out: Kd detected from the equilibrium response data; cited from earlier work
# [2] = Differential scanning calorimetry of the avidin mutants; assay type: physicochemical; details: for Tm: DSC, 100 mM Na-phosphate buffer pH 7.4
# Description: In order to study the thermal stability of the purified avidin mutants, they were subjected to analysis by differential scanning calorimetry. A Nano II differential scanning calorimeter (Calorimetric Science Corporation, Provo, Utah) was used. […] The reference cell was filled with the same buffer that the sample proteins were dissolved in (100 mM Na-phosphate buffer pH 7.4). The thermograms were recorded as a function of temperature, between 25 and 130° C. at a temperature scan rate of 55.6° C./h. The baselines were subtracted and the transition midpoints (Tm) of the samples were calculated using proprietary software provided by the instrument manufacturer.
# [3] = cited from earlier work; for ΔTm: change in Tm upon biotin addition, previously published values; for DSC Tm (+biotin) / DSC Tm(−biotin): previously published (Nordlund 2003; Gonzalez 1999)
# [4] = IAsys optical biosensor, affinity of avidin and avidin mutants towards 2-iminobiotin; assay type: binding
# Description: (§1) Reversibility of biotin binding was measured for avidin and the mutants with an IAsys optical biosensor (Laitinen, O. H. et al., FEBS Lett 461 (1999), 52-8). Protein samples were allowed to bind to a biotin-aminosilane cuvette in PBS containing 1 M NaCl. After the equilibrium was reached, biotin-containing buffer was added and the dissociation of the proteins was monitored. The affinities of the proteins towards 2-iminobiotin were determined with an IAsys optical biosensor (Marttila, A. T. et al. FEBS Lett 441 (1998), 313-7). Biotin-binding activity of the mutants Avd-ci and Avd-ccci after heat treatment was studied with a microtiter plate assay. Protein samples, 5 μg/ml concentration in PBS, were heated for various time periods at 99.9° C. and then chilled on ice. The samples were transferred to a Nunc Maxisorp-plate and incubated at 37° C. for 2 h. The wells were washed three times with PBS-Tween (0.05% v/v). After that the wells were blocked with PBS containing 1% BSA at 37° C. for 30 minutes and washed again with PBS-Tween. Next, biotinylated alkaline phosphatase (Sigma) in PBS, 1% BSA was added and incubated at 37° C. for one hour. Once again, the wells were washed with PBS-Tween and the PNPP substrate in DEA buffer (1 mg/ml) was applied to the wells. The absorbances at 405 nm were measured after incubation for 45 minutes.
# [5] = test system: biotinylated alkaline phosphatase; assay: Microtiter plate assay, biotin-binding activity after heat treatment at 99.9° C.; assay type: physicochemical; details: 99.9° C. for various time periods
# Description: as §1, with “After that the wells were blocked with PBS containing 1% BSA at 37° C. for 30 minutes and washed again with PBS-Tween. Next, biotinylated alkaline phosphatase (Sigma) in PBS, 1% BSA was added and incubated at 37° C. for one hour. Once again, the wells were washed with PBS-Tween and the PNPP substrate in DEA buffer (1 mg/ml) was applied to the wells.” left out
# Biotin-binding activity of the proteins after heat treatment was studied with a microtiter plate assay (Nordlund, H. R., Laitinen, O. H., Uotila, S. T., Nyholm, T., Hytönen, V. P., Slotte, J. P. & Kulomaa, M. S. (2003) J. Biol. Chem. 278, 2479-2483). […] The absorbencies at 405 nm were measured after incubation for 45 minutes.
# [6] = Microparticle analysis, BF523-biotin binding of protein-coated particles before and after 95° C.; assay type: physicochemical; details: 30 minutes at 95° C., BF523-biotin added after treatment (iv)
# Description: Before the analysis, 3.22 μm microparticles with COOH-group/0.852 nm2 (Bangs laboratories, Fishers, Ind., USA) were covalently coated with biotin-binding proteins. Microparticles (1*108 pcs) were washed twice with H20 by sequential centrifuging (5000 g; 3 min) and aspiration, and resuspended in 200 μl PB buffer (50 mM NaH2PO4-HCl, pH 3.0). A solution of biotin binding protein (50 μl, 1 mg/ml or 3 mg/ml, 50 mM Na-acetate pH 4.0) was added while vortexing. The suspension was incubated for 1 h (500 rpm; 23° C.). Particles were washed with PB and with MES buffer (50 mM, pH 5.5) and suspended in MES buffer (200 μl). […] After the last wash particles were suspended in 100 μl volume and concentration of particles was determined with Multisizer 3 Coulter Counter (Beckman Coulter, Fullerton, Calif., USA). […]
# Microparticles (5*106 pcs) were suspended in 900 μl of assay buffer and aliquoted in […] PCR-tubes (i-v; 180 μl/aliquot). […] The samples were measured with ArcDia TPX PlateReader (ArcDia Ltd.) (Soini, E., Meltola, N. J., Soini, A. E., Soukka, J., Soini, J. T. & Hanninen, P. E. (2000) Biochem. Soc. Trans. 28, 70-74). […]
# The fluorescence emission efficiencies of the BF523-biotin conjugate (200 nM) was determined before and after the incubation (30 min) at 95° C. […]
# [7] = + biotin, difference in Tm compared to wt avidin + biotin
# [8] = + biotin (biotin:avidin molar ratio 3:1)
# [9] = without biotin, difference in Tm compared to wt avidin
substance,measurement,setting,value
"Avd-cci: Avidin mutant D86C, I106C with four intermonomeric disulphide bridges (1-4 and 2-3)",Kd,[1],94 nM
same,ΔTm,[2]; [7],−0.7 °C
same,Tm,[2]; [8],117.5 ± 0.1 °C
same,Tm,[2]; without biotin,74.4 ± 0.1 °C
same,ΔTm,[2]; [9],−11.1 °C
same,ΔTm,[3],43.1 °C
same,DSC Tm (+biotin),[3],117.5 ± 0.1 °C
same,DSC Tm(−biotin),[3],74.4 ± 0.1 °C
same,Kd,[4],94 nM
Avd-ci: Avidin mutant I117C with two intermonomeric disulphide bridges (subunits 1-3 and 2-4),Kd,[1],190 nM
same,ΔTm,[2]; [7],6.5 °C
same,Tm,[2]; [8],124.7 ± 0.5 °C
same,Tm,[2]; without biotin,98.6 ± 0.1 °C
same,ΔTm,[2]; [9],13.1 °C
same,biotin-binding activity after heat treatment,[5],"remained active, in the sense of binding biotin, longer than the wild-type avidin"
same,ΔTm,[3],26.1 °C
same,DSC Tm (+biotin),[3],124.7 ± 0.5 °C
same,DSC Tm(−biotin),[3],98.6 °C and 98.6 ± 0.1 °C
same,original signal after heat treatment of coated particles,[6],35%
same,Kd,[4],85 nM
"Avd-nc: Cysteineless avidin mutant C4A, C83Y; intramonomeric disulphide bridges removed",Kd,[1],25 nM
same,ΔTm,[2]; [7],0.3 °C
same,Tm,[2]; [8],118.5 ± 0.1 °C
same,Tm,[2]; without biotin,76.4 ± 0.4 °C
same,ΔTm,[3],42.1 °C
same,DSC Tm (+biotin),[3],118.5 ± 0.1 °C
same,DSC Tm(−biotin),[3],76.4 ± 0.4 °C
same,Kd,[4],190 nM
"Streptavidin: Bacterial streptavidin (SEQ ID NO 2), literature values [reference compound]",ΔTm,[3],36.7 °C
same,ΔH of unfolding,[3]; previously published (Gonzalez 1999),150.3 kcal/mol
same,DSC Tm (+biotin),[3],112.2 °C
same,DSC Tm(−biotin),[3],75.5 °C
